Measurements published in patent US20050276799A1 (PDL BIOPHARMA, published 2005).
Numbering of substitutions follows the chain as printed. Numbers in names are those of the source. Read-outs that look alike come from different tables or passages of the source.

How the values were obtained:
[1] = target: T1, recombinant, GPI-linked human FcRn on cell line NS0 HuFcRn (memb), clone 7-3 (human, UniProt P55899 24-297; P61769 21-119); test: competition FACS vs biotinylated HuEP5C7-IgG2M3 on NS0 cells expressing human FcRn, FBB pH 6.0
T1 construct: Expressed from pDL208 on the surface of NS0 cells; also called human neonatal Fc receptor; not shown: human c-myc decapeptide flanked by linker peptides, then GPI linkage signal of human decay accelerating factor (vector p)

[2] = target: T1, recombinant, GPI-linked human FcRn on …; test: competition FACS vs biotinylated HuEP5C7-IgG2M3 on NS0 cells expressing human FcRn, FSB pH 6.0
[3] = target: T1, recombinant, GPI-linked human FcRn on …; test: IC50 of wild-type / IC50 of this antibody, same assay
[4] = target: T1, recombinant, GPI-linked human FcRn on …; test: as above; remark: listed apart in the source
[5] = target: T1, recombinant, GPI-linked human FcRn on …; test: as above; remark: listed apart in the source
[6] = target: T2, recombinant, GPI-linked rhesus FcRn on cell line NS0 RhFcRn, clone R-3 (rhesus, UniProt H9Z6D2 24-297; Q6V7J5 21-119, GPI-linked); test: as above
T2 construct: Expressed from pDL410 on the surface of NS0 cells; not shown: human c-myc decapeptide flanked by linker peptides, then GPI linkage signal of human decay accelerating factor (vector p)

[7] = target: T1, recombinant, GPI-linked human FcRn on …; test: competition FACS vs biotinylated OST577-IgG2M3 on NS0 cells expressing human FcRn, FBB pH 6.0
[8] = target: T1, recombinant, GPI-linked human FcRn on …; test: IC50 of wild-type / IC50 of this antibody, same assay; remark: listed apart in the source
[9] = target: T1, recombinant, GPI-linked human FcRn on …; test: competition FACS vs biotinylated human IgG on NS0 cells expressing human FcRn, FBB pH 6.0
[10] = target: T1, recombinant, GPI-linked human FcRn on …; test: IC50 of wild-type / IC50 of this antibody, same assay; remark: listed apart in the source
[11] = target: T2, recombinant, GPI-linked rhesus FcRn on …; test: as above; remark: listed apart in the source
[12] = target: T1, recombinant, GPI-linked human FcRn on …; test: competition FACS vs biotinylated human IgG on NS0 cells expressing human FcRn, FBB pH 6.0; remark: listed apart in the source
[13] = target: T1, recombinant, GPI-linked human FcRn on …; test: IC50 of wild-type / IC50 of this antibody, same assay; remark: listed apart in the source
[14] = target: T1, recombinant, GPI-linked human FcRn on …; test: competition FACS vs biotinylated human IgG on NS0 cells expressing human FcRn, FBB pH 6.0; remark: listed apart in the source
[15] = target: T1, recombinant, GPI-linked human FcRn on …; test: IC50 of wild-type / IC50 of this antibody, same assay; remark: listed apart in the source
[16] = target: T1, recombinant, GPI-linked human FcRn on …; test: as above; remark: listed apart in the source
[17] = target: T1, recombinant, GPI-linked human FcRn on …; test: competition FACS vs biotinylated human IgG on NS0 cells expressing human FcRn, FBB pH 6.0; remark: listed apart in the source

B1: OST577-IgG2M3 wild-type (antibody)
heavy: QVQLVESGGGVVQPGRSLRLSCAASGFTFSRYGMHWVRQAPGKGLEWVAVISYDGSNKWYADSVKGRFTISRDNSKNTLFLQMHSLRAADTGVYFCAKDQLYFGSQSPGHYWGQGTLVTVSSASTKGPSVFPLAPCSRSTSESTAALGCLVKDYFPEPVTVSWNSGALTSGVHTFPAVLQSSGLYSLSSVVTVPSSNFGTQTYTCNVDHKPSNTKVDKTVERKCCVECPPCPAPPAAAPSVFLFPPKPKDTLMISRTPEVTCVVVDVSHEDPEVQFNWYVDGVEVHNAKTKPREEQFNSTFRVVSVLTVVHQDWLNGKEYKCKVSNKGLPAPIEKTISKTKGQPREPQVYTLPPSREEMTKNQVSLTCLVKGFYPSDIAVEWESNGQPENNYKTTPPMLDSDGSFFLYSKLTVDKSRWQQGNVFSCSVMHEALHNHYTQKSLSLSPSK
light: SYVLTQPPSVSVAPGQTARITCGGDNIGSKSVNWFQQKPGQAPVLVVYDDNERPSGISERFSGSNSGNTATLTISRVEAGDEADYYCQVWDSSSDHVVFGGGTKLTVLGQPKAAPSVTLFPPSSEELQANKATLVCLISDFYPGAVTVAWKADSSPVKAGVETTTPSKQSNNKYAASSYLSLTPEQWKSHRSYSCQVTHEGSTVEKTVAPTECS
notes: Human anti-HBV antibody, IgG2M3 (V234A, G237A) heavy, lambda-2 light
For B1, the IC50 [1] was 9.4 µg/mL, the IC50 [2] was 10.7 µg/mL and the “Relative Binding” value [3] was 1 ratio. The “Relative Binding” value [4] was 1 ratio, the “Relative Binding” value [5] was 1 ratio and the “Relative Binding” value [6] was 1 ratio. The IC50 [7] was 11.9 µg/mL.

B2: OST577-IgG2M3 M428F (antibody)
heavy: B1 heavy with M429F
light: B1 light
For B2, the IC50 [1] was 2.97 µg/mL, the IC50 [2] was 3.4 µg/mL and the “Relative Binding” value [3] was 3.1 ratio. For the same binder, the “Relative Binding” value [4] was 3.2 ratio.

B3: OST577-IgG2M3 T250E/M428F (antibody)
heavy: B1 heavy with T251E, M429F
light: B1 light
In the case of B3, the IC50 [1] is reported as 0.639 µg/mL and the “Relative Binding” value [4] is reported as 15 ratio.

B4: M200-IgG4 wild-type (volociximab) (antibody)
heavy: not shown
light: QIVLTQSPAIMSASLGERVTMTCTASSSVSSNYLHWYQQKPGSAPNLWIYSTSNLASGVPARFSGSGSGTSYSLTISSMEAEDAATYYCHQYLRSPPTFGGGTKLEIKRTVAAPSVFIFPPSDEQLKSGTASVVCLLNNFYPREAKVQWKVDNALQSGNSQESVTEQDSKDSTYSLSSTLTLSKADYEKHKVYACEVTHQGLSSPVTKSFNRGEC
notes: Chimeric anti-α5β1 integrin; also called M200-IgG4 WT
B4 was tested, and the “Relative Binding” value [8] was 1 ratio and the IC50 [9] was 34.7 µg/mL.

B5: M200-IgG4 T250Q/M428L (antibody)
heavy: not shown
light: B4 light
In the case of B5, the “Relative Binding” value [8] is reported as 35 ratio and the IC50 [9] is reported as 1 µg/mL.

B6: Hu1D10-IgG4 wild-type (antibody)
heavy: not shown
light: DIQMTQSPSSLSASVGDRVTITCRASENIYSYLAWYQQKPGKAPKLLVSNAKTLAEGVPSRFSGSGSGKQFTLTISSLQPEDFATYYCQHHYGNSYPFGQGTKLEIKRTVAAPSVFIFPPSDEQLKSGTASVVCLLNNFYPREAKVQWKVDNALQSGNSQESVTEQDSKDSTYSLSSTLTLSKADYEKHKVYACEVTHQGLSSPVTKSFNRGEC
B6 was tested, and the “Relative Binding” value [10] was 1 ratio and the “Relative Binding” value [11] was 1 ratio.

B7: HuM291-IgG2M3 wild-type (visilizumab) (antibody)
heavy: QVQLVQSGAEVKKPGASVKVSCKASGYTFISYTMHWVRQAPGQGLEWMGYINPRSGYTHYNQKLKDKATLTADKSASTAYMELSSLRSEDTAVYYCARSAYYDYDGFAYWGQGTLVTVSSASTKGPSVFPLAPCSRSTSESTAALGCLVKDYFPEPVTVSWNSGALTSGVHTFPAVLQSSGLYSLSSVVTVPSSNFGTQTYTCNVDHKPSNTKVDKTVERKCCVECPPCPAPPAAAPSVFLFPPKPKDTLMISRTPEVTCVVVDVSHEDPEVQFNWYVDGVEVHNAKTKPREEQFNSTFRVVSVLTVVHQDWLNGKEYKCKVSNKGLPAPIEKTISKTKGQPREPQVYTLPPSREEMTKNQVSLTCLVKGFYPSDIAVEWESNGQPENNYKTTPPMLDSDGSFFLYSKLTVDKSRWQQGNVFSCSVMHEALHNHYTQKSLSLSPSK
light: DIQMTQSPSSLSASVGDRVTITCSASSSVSYMNWYQQKPGKAPKRLIYDTSKLASGVPSRFSGSGSGTDFTLTISSLQPEDFATYYCQQWSSNPPTFGGGTKVEIKRTVAAPSVFIFPPSDEQLKSGTASVVCLLNNFYPREAKVQWKVDNALQSGNSQESVTEQDSKDSTYSLSSTLTLSKADYEKHKVYACEVTHQGLSSPVTKSFNRGEC
notes: Humanized anti-CD3; also called HuM291-IgG2M3 WT; Nuvion
With B7 the IC50 [12] was 42.2 µg/mL and the “Relative Binding” value [13] was 1 ratio.

B8: HuM291-IgG2M3 T250Q/M428L (antibody)
heavy: B7 heavy with T249Q, M427L
light: B7 light
With B8 the IC50 [12] was 0.994 µg/mL and the “Relative Binding” value [13] was 42 ratio.

B9: Dac-IgG1 wild-type (daclizumab) (antibody)
heavy: not shown
light: DIQMTQSPSTLSASVGDRVTITCSASSSISYMHWYQQKPGKAPKLLIYTTSNLASGVPARFSGSGSGTEFTLTISSLQPDDFATYYCHQRSTYPLTFGQGTKVEVKRTVAAPSVFIFPPSDEQLKSGTASVVCLLNNFYPREAKVQWKVDNALQSGNSQESVTEQDSKDSTYSLSSTLTLSKADYEKHKVYACEVTHQGLSSPVTKSFNRGEC
notes: Humanized anti-CD25; also called Dac-IgG1 WT
For B9, the IC50 [14] was 20.4 µg/mL and the “Relative Binding” value [15] was 1 ratio.

B10: Dac-IgG2M3 wild-type (antibody)
heavy: QVQLVQSGAEVKKPGSSVKVSCKASGYTFTSYRMHWVRQAPGQGLEWIGYINPSTGYTEYNQKFKDKATITADESTNTAYMELSSLRSEDTAVYYCARGGGVFDYWGQGTLVTVSSASTKGPSVFPLAPCSRSTSESTAALGCLVKDYFPEPVTVSWNSGALTSGVHTFPAVLQSSGLYSLSSVVTVPSSNFGTQTYTCNVDHKPSNTKVDKTVERKCCVECPPCPAPPAAAPSVFLFPPKPKDTLMISRTPEVTCVVVDVSHEDPEVQFNWYVDGVEVHNAKTKPREEQFNSTFRVVSVLTVVHQDWLNGKEYKCKVSNKGLPAPIEKTISKTKGQPREPQVYTLPPSREEMTKNQVSLTCLVKGFYPSDIAVEWESNGQPENNYKTTPPMLDSDGSFFLYSKLTVDKSRWQQGNVFSCSVMHEALHNHYTQKSLSLSPGK
light: B9 light
notes: also called Dac-IgG2M3 WT
B10 was tested, and the “Relative Binding” value [16] was 1 ratio and the IC50 [17] was 71.4 µg/mL.

B11: Dac-IgG1 T250Q/M428L (antibody)
heavy: not shown
light: B9 light
notes: also called T250Q/M428L daclizumab
In the case of B11, the IC50 [14] is reported as 0.626 µg/mL and the “Relative Binding” value [15] is reported as 33 ratio.

B12: Dac-IgG2M3 T250Q/M428L (antibody)
heavy: B10 heavy with T245Q, M423L
light: B9 light
For B12, the “Relative Binding” value [16] was 18 ratio and the IC50 [17] was 4.02 µg/mL.
